Measurements published in patent publication US20200317776A1 (published 2020).
Changes are numbered by the printed parent chain.

T1: human TREM2 Fc fusion (entire TREM2 ECD; only one Fc arm fused to TREM2) (human, UniProt Q9NZC2 19-174)
T1 construct: also called huTREM2-Fc; recombinant hTREM2
T1 sequence: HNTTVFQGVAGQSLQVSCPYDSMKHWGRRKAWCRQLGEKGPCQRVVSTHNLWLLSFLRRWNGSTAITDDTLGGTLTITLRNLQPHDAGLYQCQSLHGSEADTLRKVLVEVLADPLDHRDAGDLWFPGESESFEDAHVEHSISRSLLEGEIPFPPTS

T2: human TREM2 expressed on cells (human, UniProt Q9NZC2 19-230)
T2 sequence: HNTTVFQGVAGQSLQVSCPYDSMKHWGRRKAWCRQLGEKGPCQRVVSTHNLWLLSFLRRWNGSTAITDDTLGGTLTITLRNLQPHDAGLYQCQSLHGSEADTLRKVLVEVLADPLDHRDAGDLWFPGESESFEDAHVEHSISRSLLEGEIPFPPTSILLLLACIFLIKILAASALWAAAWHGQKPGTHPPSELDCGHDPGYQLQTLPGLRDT

T3: cynomolgus monkey TREM2 Fc fusion (entire TREM2 ECD; only one Fc arm fused to TREM2) (cynomolgus monkey, UniProt Q9NZC2 19-174 (human entry))
T3 construct: also called cyno TREM2-Fc
T3 chain: T1 sequence with A10E, W60R, L89F, F125V

B1: AL2p-h77 (antibody, human IgG1, V domains shown)
VH: QVQLVQSGAEVKKPGASVKVSCKASGYAFSSSWMNWVRQAPGQRLEWIGRIYPGDGDTNYAQKFQGRVTITADTSASTAYMELSSLRSEDTAVYYCARLLRNQPGESYAMDYWGQGTLVTVSS
VL: DVVMTQSPDSLAVSLGERATINCRSSQSLVHSNGYTYLHWYQQKPGQSPKLLIYKVSNRFSGVPDRFSGSGSGTDFTLTISSLQAEDVAVYYCSQSTRVPYTFGGGTKVEIK
notes: humanized, human IgG1; Fab and IgG formats under one id; also called A2p-h77
B2: AL2p huIgG1 (human mouse chimeric parental antibody) (antibody, V domains shown)
VH: QVQLQQSGPELVKPGASLKISCKASGYAFSSSWMNWVKQRPGKGLEWIGRIYPGDGDTNYNGEFRVRATLTADTSSTTAYMQLSSLTSEDSAVYFCARLLRNQPGESYAMDYWGQGASVTVSS
VL: DVVMTQTPLSLPVSLGDQASISCRSSQSLVHSNGYTYLHWYLQKPGQSPKLLIYKVSNRFSGVPDRFSGSGSGTDFTLKISRVEADDLGVYFCSQSTRVPYTFGGGTKLEIK
notes: Mouse variable region with human IgG1 Fc region; Fab and IgG formats under one id; also called chimeric parental AL2p antibody as huIgG1
B3: AL2p-h50 (antibody, human IgG1, V domains shown)
VH: B1 VH with A16S, R44G, I48M, T74E, A76T
VL: B2 VL with P12S, S14T, L15P, D17Q, Q18P, K50Q, D86E, L88V, F92Y, G105Q
notes: humanized, human IgG1; Fab and IgG formats under one id
B4: AL2p-37 (antibody, IgG1, V domains shown)
VH: B1 VH with S32Q, D55G, Q62G
VL: B1 VL
notes: Fab and IgG formats under one id; also called AL2p-37 huIgG1
B5: AL2p-5 (antibody, V domains shown)
VH: B1 VH with A16S, R44G, I48M, T74E, A76T
VL: DVVMTQTPLSLSVTPGQPASISCRSSQSLVHSNRYTYLHWYLQKPGQSPQLLIYKVSNRFSGVPDRFSGSGSGTDFTLKISRVEAEDVGVYYCSQSTRVPYTFGQGTKLEIK
notes: AL2p-h50 variant; Fab and IgG formats under one id; also called AL2-5
B6: AL2p-4 (antibody, V domains shown)
VH: B1 VH with A16S, R44G, I48M, D55Q, T74E, A76T
VL: B5 VL with R34G
B7: AL2p-2 (antibody, V domains shown)
VH: B1 VH with A16S, R44G, I48M, D55G, T74E, A76T
VL: B5 VL with R34G
notes: AL2p-h50 variant; Fab and IgG formats under one id
B8: AL2p-62 (antibody, V domains shown)
VH: B1 VH with S32Q, D55E, Q62G
VL: B1 VL with G34Q
notes: Fab and IgG formats under one id
B9: AL2p-59 (antibody, V domains shown)
VH: B1 VH with A16S, S32H, R44G, I48M, D55E, D57Q, F64R, T74E, A76T
VL: B5 VL with D1G, S25T, R34Q, F60V
notes: as for B8
B10: AL2p-60 (antibody, IgG1, V domains shown)
VH: B1 VH with A16S, S32Q, R44G, I48M, D55E, Q62R, T74E, A76T
VL: B5 VL with D1G, R34Q, F60R

Target: T1, human TREM2 Fc fusion (entire TREM2 …)
Assay: BLI, Fab, monovalent
Protocol: Briefly, IgG's were loaded on-line onto AHQ sensors. Sensors were equilibrated off-line in assay buffer for 30 minutes and then monitored on-line for 60 seconds for baseline establishment. For avid binding measurement, sensors with loaded IgGs were exposed to 100 nM antigen (human TREM2 Fc fusion using the entire TREM2 ECD; only one Fc arm was fused to TREM2) for 3 minutes, afterwards they were transferred to assay buffer for 3 minutes for off-rate measurement. Monovalent binding measurements were obtained by loading human TREM2 Fe fusion antigens to AHQ sensor and followed by exposure to 100 nM TREM2 antibody Fab. Kinetics data were fit using a 1:1 binding model in the data analysis software provided by ForteBio. Assay was run at room temperature (25° C.).

In order of falling Kd:
1. B3  180 nM
2. B2  102 nM
3. B1  93.9 nM

Target: T4, human TREM2/DAP12 fusion protein (human, UniProt O43914 41-113, limits assumed)
T4 sequence (O43914 other isoform, or with tags, fused parts or gaps limits assumed): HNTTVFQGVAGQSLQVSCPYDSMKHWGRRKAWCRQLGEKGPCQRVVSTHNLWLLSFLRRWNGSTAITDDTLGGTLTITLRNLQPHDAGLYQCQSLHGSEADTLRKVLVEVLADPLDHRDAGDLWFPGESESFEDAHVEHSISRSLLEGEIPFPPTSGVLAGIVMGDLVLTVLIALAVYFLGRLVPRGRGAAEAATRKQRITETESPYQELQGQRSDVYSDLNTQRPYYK
Assay: cell-based or functional assay

In order of rising “Luciferase activation plate bound 33 nM IgG, FOC” value:
1. B1  6.77 FOC
2. B3  6.83 FOC
3. B7  7.36 FOC
4. B6  7.42 FOC
5. B4  9.42 FOC
6. B5  9.99 FOC

In order of falling “Luciferase activation soluble 10 nM IgG, FOC” value:
1. B4  2.16 FOC
2. B7  1.7 FOC
3. B1  1.47 FOC
4. B6  1.45 FOC
5. B5  1.27 FOC
6. B3  1.26 FOC

Target: T2, human TREM2 expressed on cells
Assay: cell-based or functional assay

In order of rising “Survival huDCs plate bound IgG, AUC” value:
1. B3  337000 AUC
2. B1  381000 AUC
3. B7  461000 AUC
4. B4  680000 AUC
5. B5  710000 AUC

Target: T3, cynomolgus monkey TREM2 Fc fusion …
Assay: BLI, Fab, monovalent

In order of falling Kd:
1. B3  7700 nM
2. B5  4630 nM
3. B7  1400 nM
4. B1  184 nM
5. B8  19.4 nM
6. B4  16.1 nM
7. B9  3.95 nM

Target: T1, human TREM2 Fc fusion (entire TREM2 …)
Assay: BLI, Fab, monovalent
Remark: another data set of the same source

In order of falling Kd:
1. B3  112 nM
2. B1  102 nM
3. B5  99.2 nM
4. B7  63.3 nM
5. B4  23.8 nM
6. B8  21.1 nM
7. B9  3.85 nM

Target: T2, human TREM2 expressed on cells
Assay: FACS, hTREM2 BW cells

In order of falling “Bmax (MFI)” value:
1. B4  216000 MFI
2. B2  199000 MFI

In order of falling Kd:
1. B2  1.32 nM
2. B4  1.17 nM

Target: T4, human TREM2/DAP12 fusion protein
Assay: cell-based or functional assay
Remark: another data set of the same source

In order of falling “Plate bound IgG, fold over unstimulated control (25 nM IgG)” value:
1. B4  1.56 fold
2. B2  1.29 fold

In order of falling “Soluble IgG, EC50” value:
1. B2  14.6 nM
2. B4  9.41 nM

In order of falling “Soluble IgG, fold over control IgG (17 nM IgG)” value:
1. B4  7.63 fold
2. B2  4.51 fold

Target: T2, human TREM2 expressed on cells
Assay: FACS, hTREM2 BW cells
Remark: another data set of the same source

In order of rising Kd:
1. B10  1.12 nM
2. B9  1.24 nM
3. B5  2 nM
4. B8  2.63 nM

Target: T2, human TREM2 expressed on cells
Assay: FACS, human DCs
In short: (§1)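 Cells were BW5147.G.1.4 stably expressing human TREM2 with Dap12, or human monocyte-derived dendritic cells differentiated 6 days with GM-CSF and IL-4. Antibodies bound 1 h on ice in PBS+2% FBS, then PE anti-human secondary 30 min on ice; flow cytometry read-out as mean fluorescence intensity.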

In order of rising MFI:
1. B3  26 MFI
2. B1  162 MFI
3. B4  194 MFI

Target: T2, human TREM2 expressed on cells
Assay: FACS, hTREM2 BW cells
Remark: another data set of the same source
In short: as §1

In order of rising Kd:
1. B5  2 nM
2. B7  2.2 nM
3. B4  2.9 nM
4. B3  3.7 nM
5. B1  3.9 nM

Target: T4, human TREM2/DAP12 fusion protein
Assay: cell-based or functional assay
Remark: another data set of the same source

In order of rising “Soluble luciferase activation at 10 µg/ml Fold over control” value:
1. B2  3.55 fold over control
2. B3  6.36 fold over control
3. B1  7.14 fold over control

Target: T1, human TREM2 Fc fusion (entire TREM2 …)
Assay: BLI, IgG, avid
In short: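 Avid format: AHQ-loaded IgGs exposed to 100 nM human or cyno TREM2-Fc antigen, 3 min association, 3 min dissociation in buffer. Monovalent format: human TREM2-Fc loaded on AHQ sensors, exposed to 100 nM Fab. Kinetics fit to 1:1 model, run at 25° C.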

In order of rising Kd:
1. B4  0.779 nM
2. B7  0.837 nM
3. B1  1.17 nM
4. B3  1.19 nM

Target: T2, human TREM2 expressed on cells
Assay: cell-based or functional assay
Remark: another data set of the same source

In order of rising “EC50 viability, dendritic cells D558” value:
1. B10  0.152 nM
2. B4  4.19 nM
3. B2  95.7 nM

In order of rising “EC50 viability, dendritic cells D559” value:
1. B10  0.244 nM
2. B4  6.16 nM
3. B2  41.2 nM

In order of falling “EC50 viability, dendritic cells D560” value:
1. B2  55.1 nM
2. B4  4.47 nM
3. B10  0.178 nM

In order of falling “EC50 viability, macrophages D558” value:
1. B2  12.3 nM
2. B4  1.24 nM

In order of falling “EC50 viability, macrophages D559” value:
1. B2  146 nM
2. B4  18.3 nM
3. B10  0.194 nM

In order of rising “EC50 viability, macrophages D560” value:
1. B10  0.154 nM
2. B4  31.8 nM
3. B2  129 nM

Target: T2, human TREM2 expressed on cells
Assay: FACS, hTREM2 BW cells
Remark: another data set of the same source
Protocol: To examine cell binding of anti-TREM2 antibodies, recombinant, human TREM2-expressing BW5147.G.1.4 cells (ATCC® TIB48™) were established by stably expressing either mouse TREM2 or human TREM2 together with Dap12 using viral infection. Cells were harvested by scraping, washed in PBS, counted and plated on 96-well U bottom plates at 1)(10⁵ cells/well. The plates were spun at 1,400 rpm for 3 minutes and primary anti-TREM2 or control antibodies were added in FACS buffer (PBS H2% FBS) and incubated on ice for one hour. Cells were subsequently centrifuged as before and washed thrice with FACS buffer. Cells were then incubated with anti-human PE conjugated secondary antibody (BD Biosciences) in FACS buffer for 30 minutes on ice. Cells were again washed thrice with FACS buffer and analyzed on a BD FACS Canto. Binding was measured as mean fluorescence intensity in the APC channel.

In order of falling “cell binding (FOB)” value:
1. B1  83 FOB
2. B2  79 FOB
3. B3  78 FOB

Target: T4, human TREM2/DAP12 fusion protein
Assay: cell-based or functional assay
Remark: another data set of the same source

In order of rising “luciferase activation, soluble IgG, EC50” value:
1. B9  11.2 nM
2. B1  20.1 nM
3. B7  23 nM
4. B8  25.1 nM
5. B5  38.1 nM
6. B3  63.1 nM
7. B6  66.2 nM
